Substrate: NCCCCNCCCN
Assay: Inhibition of deoxyhypusine synthase ([3H]deoxyhypusine formation from [3H]spermidine), IC50/Ki
Format: biochemical, rat
Conditions: pH 9.3; 37.0 °C
Experimental: A typical assay mixture included 0.2M glycine, 1 mM dithiothreitol, 0.5 mM NAD^+, 2.4 micromolar (μM) [1,8-^3 H] spermidine, 1 μM ec-eIF-5A(Lys), 25 micrograms (μg) bovine serum albumin, and 3-15 units of enzyme in a total volume of 20 microliters (μl). Incubations were carried out at pH 9.3 and 37° C. for 1 hour. […] Percent inhibition was plotted versus log inhibitor concentration in order to obtain graphic estimates of IC50 values, i.e., the concentrations inhibiting [^3 H]deoxyhypusine production by 50%. The IC50 values reported in the tables were calculated by fitting the data points to equation 1 where x=% inhibition and I is the inhibitor concentration. […] The nature of the inhibition was determined by plotting reciprocal velocities of [^3 H]deoxyhypusine production against reciprocals of [^3 H]spermidine concentrations at a constant fixed level of ec-eIF-5A(Lys) (1 μM) and at set inhibitor concentrations. […] Estimates of Ki values were made by fitting the data to equation 2; wherein v is the velocity of the reaction, V is the maximum velocity, S is the substrate concentration, Km is Michaeli's constant, Ki is the inhibition constant, and I is the inhibitor concentration.

B1: deoxyhypusine synthase from rat testis (Rattus norvegicus) (protein)
chain: MEGTPSGAAPSSALAAVLKHSSALPPESAQVQGYDFNRGVDYHALLEAYGTTGFQATNFGRAVQQVNAMIEKKLEPLAVDEDHHEDLTQSRRPLTGCTIFLGYTSNLISSGIRETIRYLVQHNMVDVLVTTAGGVEEDLIKCLAPTYLGEFSLRGKELRENGINRIGNLLVPNDNYCKFEDWLMPILDQMVQEQNTEGVKWTPSKMISRLGKEINNPESVYYWAHKNHIPVLSPALTDGSLGDMIFFHSYKNPGLVLDIVEDLRLINMQAIFAKRTGMIILGGGVVKHHIANANLMRNGADYAVYINTAQEFDGSDSGARPDEAVSWGKIRMDAQPVKVYADASLVFPLLVAETFAQKADAFRAEKNED
notes: as catalyzed by deoxyhypusine synthase from rat testis; from tissue; host or cells: rat testis
Km: 4.5 ± 0.7 µM

Source: patent publication US5344846A, “Compositions and methods for inhibiting deoxyhypusine synthase and the growth of cells” (The United States of America as represented by the …, priority 1992, dated 1994)
